Source: patent US20090029864A1

T1: His-tagged Stx 2B-subunit (wild type) (enterohemorrhagic Escherichia coli O157:H7), P09386
T1 chain: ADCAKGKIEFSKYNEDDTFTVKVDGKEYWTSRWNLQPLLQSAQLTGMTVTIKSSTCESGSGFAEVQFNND


Target: T1, His-tagged Stx 2B-subunit (wild type) …

Binder | RUmax [AU]
MAKRRNPRRA (modifications not checked) [(Met-Ala-KRRNPRR-Ala-AHA-)4-3Lys] | 1290
MAFRRNRRNA (modifications not checked) [(Met-Ala-FRRNRRN-Ala-AHA-)4-3Lys] | 1490
MAPPRRNRRA (modifications not checked) [(Met-Ala-PPRRNRR-Ala-AHA-)4-3Lys] | 1350
MAPPPRRRRA (modifications not checked) [(Met-Ala-PPPRRRR-Ala-AHA-)4-3Lys] | 1250
